Laboratory results taken from the supplement of paper PMC9170038.

Test system: MS2 coat protein
Test: apparent KD of MS2 coat protein; designed switch direction (-1 OFF switch, 1 ON switch): -1; higher = weaker reporter binding
In short: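 RNA switches sharing common flanks were transcribed by stalled E. coli RNA polymerase on Illumina chips. A doubling series of SNAP-549-labelled MS2 coat protein, from 0.7 or 1.5 nM to 3 µM, was applied in Tris-HCl pH 7.5 buffer with KCl, MgCl2, BSA, DTT, tRNA and Tween-20. Each step lasted 0.8–1.5 h at the bottom of the series and 10–20 min at the top. Normalised cluster fluorescence was curve-fitted, giving apparent KD as the per-design median over clusters.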

[1] = input ligand: microRNA oligo, concentration not stated
[2] = Eterna round: R95, input ligand: FMN 200 uM
[3] = Eterna round: R95, input ligand: microRNA oligo, concentration not stated
[4] = Eterna round: R95, input ligand: none

Sequence | apparent KD of MS2 coat protein (input ligand: FMN 200 uM) [nM] | apparent KD of MS2 coat protein [1] [nM] | apparent KD of MS2 coat protein (input ligand: none) [nM] | apparent KD of MS2 coat protein [2] [nM] | apparent KD of MS2 coat protein [3] [nM] | apparent KD of MS2 coat protein [4] [nM]
CUGCUCCGUGUAGGAUAUCGCCGCACCACCCGGCGAGAAGGACAUGAGGAUCACCCAUGUAUGUUAUUAUCACGUGUGGCGCGA [Design 41] (Eterna round: R96, puzzle: Exclusion NG 1) | 16.4 | 13.9 | 17.1 | – | – | –
AUUAUGUUAGGAUAUGCUUAUGGUGGAUAAUCGGAUAUGAUGCAGAAGGGACAUGAGGAUCACCCAUGUACUGU [EX4 #23] (Eterna round: R97, puzzle: Exclusion 4) | 21.5 | – | 22.1 | – | – | –
GGUACUAACAGCUGACUGUUAGUACUGUAGGUUUGUGUUACAUGAGGAUCACCCAUGUCCUCAUAAGCUCGUCUUGU [JL-sv3-2.23 mat747 mod] (puzzle: Sensor v3, turn-off variant 2) | – | – | – | 382 | 252 | 445
UUGCAGUCGUCAGGAUAUAGUAUUACGGCCAUUUAUUUUUUCAUACAUGAGGAUCACCCAUGUCGCUAGAAGGGAUUAUCGAUU [salish99_ExNG2_r04_102] (Eterna round: R96, puzzle: Exclusion NG 2) | – | 38.9 | – | – | – | –
GAAGAGACAGGAUAUACAUGAGGAUCACCCAUGUGAGUAAGGUAGAGGCGGAGGAGAUGUAGAAGGGUCAAAGA [JR_Exclu3_Sub016] (puzzle: Exclusion 3) | – | – | – | 49.9 | 35.6 | 41.5
GAUCAUGCAGGAUAUACAUGGAACAUGUAAACAUGAAUUUCACAUGAGGAUCACCCAUGUAGAAGGGCAUGAUC [Omei Ex2 A13] (Eterna round: R97, puzzle: Exclusion 2) | 314 | – | 2200 | – | – | –
CCAUGUGAGGAGGAUAUCGCCGCGCGAACCGAAUGAGAAGGUCUUACAUGAGGAUCACCCAUGUAAAGUACAUC [Eternabot (L1) Solution 1] (Eterna round: R97, puzzle: Exclusion 6) | 20.9 | – | 13.1 | – | – | –
GUUACACAUGAGGAUCACCCAUGUAAGGAUAUGCUGCGGUCGCGCUGACGUGACUGCAGCAGAAGGUACAAUUG (puzzle: Exclusion 1) | – | – | – | – | 67.6 | –
AAGAAAGGUGACAUGGGCGACAUGAGGAUCACCCAUGUUACAAGCUUGUUGCUCGUCUUAUAAUUAACCCAUGUCAC [LRO Sensor-off var1-21 mod of Stov1-13-A1 by Brourd] (Eterna round: R97, puzzle: Sensor, turn-off variant 1) | 16.1 | – | 17.9 | – | – | –
UACGAACUAGGAUAUGCAAUGGGCUCGCUUUCCUUCGAUAAACUUGAGGAUCACCCAAGUAGAAGGAGUUUGUA [Mod 38 - Jieux - Exclusion 2] (Eterna round: R97, puzzle: Exclusion 2) | 40.8 | – | 16.6 | – | – | –
UACAUGAGGAUCACCCAUGUUUUGUCGUGUAUGGUAUUUAUCUAGGAUAUCAAUUUGAUUAUUUAUGAGAAGGAGAAUAUUAAU [JMF's solution 65] (Eterna round: R96, puzzle: Exclusion NG 3) | 39.1 | 28.8 | 39.1 | – | – | –
AAUUAGCAAGCAAGAUCCCACAUGAGGAUCACCCAUGUGCUCGUCUUAUAAGGUACUGUGACGAAAGUCACGGUACC [Mat - Sensor, turn-off var - Eli Mod - D50] (Eterna round: R97, puzzle: Sensor, turn-off variant 1) | 50.2 | – | 54.8 | – | – | –
GACAUCGCAGGAUAUUAGAGUUUUUACAUGAGGAUCACCCAUGUUAAUUGGGUUAAUGUCUAAGAAGGGCGAUGUC [JR_EX5_Sub015] (Eterna round: R97, puzzle: Exclusion 5) | 113 | – | 49.4 | – | – | –
GAGUAGCUAGGAUAUCGAAAACAUCACAUGAGGAUCACCCAUGUGCCGGGUGCUCAGAUGCGAGAAGGAGCAAAGA [Reatququ] (puzzle: Exclusion 5) | – | – | – | 219 | 131 | 175
UUAUACGGUGAGGAUAUCUUCACUAAAGUGUGAAGAGAAGGCGCUACAUGAGGAUCACCCAUGUCUAUGGGCAG [Ex-6 Malc#17] (puzzle: Exclusion 6) | – | – | – | 118 | 187 | 156
GAAAAACAUGAGGAUCACCCAUGUAAGGAUAUGCUGAAAAACACGGAAAAAACGUGCAGCAGAAGGUACAAAAG [Mat - Exclusion 1 - Eli mod - D91] (Eterna round: R96, puzzle: Exclusion 1) | 107 | 44.8 | 71.1 | – | – | –
